Measurements published in patent CN111018973A.

How the values were obtained:
cTnI质控品重组抗原 (human) [1] = target: cTnI质控品重组抗原 (human) (UniProt P19429); assay: indirect ELISA, cTnI coated at 1 ug/ml, antibody 8 ng/ml, goat anti-mouse IgG-HRP
cTnI质控品重组抗原 (human) [2] = target: cTnI质控品重组抗原 (human) (UniProt P19429); assay: indirect ELISA, cTnI coated at 1 ug/ml, antibody 1.6 ng/ml, goat anti-mouse IgG-HRP
cTnI质控品重组抗原 (human) [3] = target: cTnI质控品重组抗原 (human) (UniProt P19429); assay: indirect ELISA, cTnI coated at 1 ug/ml, antibody 200 ng/ml, goat anti-mouse IgG-HRP
cTnI质控品重组抗原 (human) [4] = target: cTnI质控品重组抗原 (human) (UniProt P19429); assay: indirect ELISA, cTnI coated at 1 ug/ml, antibody 1000 ng/ml, goat anti-mouse IgG-HRP
cTnI质控品重组抗原 (human) [5] = target: cTnI质控品重组抗原 (human) (UniProt P19429); assay: indirect ELISA, cTnI coated at 1 ug/ml, antibody 0.32 ng/ml, goat anti-mouse IgG-HRP
cTnI质控品重组抗原 (human) [6] = target: cTnI质控品重组抗原 (human) (UniProt P19429); assay: indirect ELISA, cTnI coated at 1 ug/ml, antibody 0 ng/ml (blank, background), goat anti-mouse IgG-HRP
cTnI质控品重组抗原 (human) [7] = target: cTnI质控品重组抗原 (human) (UniProt P19429); assay: indirect ELISA, cTnI coated at 1 ug/ml, antibody 40 ng/ml, goat anti-mouse IgG-HRP

Sequence of UniProt P19429 (P19429 whole entry): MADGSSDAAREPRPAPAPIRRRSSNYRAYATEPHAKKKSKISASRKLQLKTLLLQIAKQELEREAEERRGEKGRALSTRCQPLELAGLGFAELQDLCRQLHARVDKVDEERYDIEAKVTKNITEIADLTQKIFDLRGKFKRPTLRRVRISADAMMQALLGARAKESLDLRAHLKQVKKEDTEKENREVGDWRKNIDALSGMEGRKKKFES

B1: Anti-cTnI 8B6 重组抗体 (WT) (antibody, V domains shown)
VH: EVQLQQSGAELVKPGASVKLSCTASGFNIRDYYMHWMKQRTEQGLDWIGRIDPEEGETKYPPEFQGKATITADTSSNTAYLQLSTLTSEDTAVYYCARYYTSYIPFVYWGQGTLVTASA
VL: DVVMTQTPLSLSVSLGDQASISCRSTQSLLYSQRHTFLHWYLQKPGQSPKLLIFKISNKFSGVPDRFSGSGSGTDFTLKISRVEAEDLGVYFCSNSTHLPYTFGSGTKLEIKR
- OD值 (450 nm, 参考630 nm) (cTnI质控品重组抗原 (human) [1]): 1.47 OD
- OD值 (450 nm, 参考630 nm) (cTnI质控品重组抗原 (human) [2]): 0.227 OD
- OD值 (450 nm, 参考630 nm) (cTnI质控品重组抗原 (human) [3]): 1.91 OD
- OD值 (450 nm, 参考630 nm) (cTnI质控品重组抗原 (human) [4]): 2.03 OD
- OD值 (450 nm, 参考630 nm) (cTnI质控品重组抗原 (human) [5]): 0.086 OD
- OD值 (450 nm, 参考630 nm) (cTnI质控品重组抗原 (human) [6]): 0.062 OD
- OD值 (450 nm, 参考630 nm) (cTnI质控品重组抗原 (human) [7]): 1.85 OD
